Experimental data from the RNAGym collection of RNA variant scans (doi:10.1093/molbev/msab373).

B1: Azoarcus group I ribozyme (parent)
chain: GUGCCUUGCGCCGGGAAACCACGCAAGGGAUGGUGUCAAAUUCGGCGAAACCUAAGCGCCCGCCCGGGCGUAUGGCAACGCCGAGCCAAGCUUCGGCGCCUGCGCCGAUGAAGGUGUAGAGACUAGACGGCACCCACCUAAGGCAAACGCUAUGGUGAAGGCAUAGUCCAGGGAGUGGCGAAAGUCACACAAACCGG

Variants of: B1
Test: reverse-splicing fitness (ratio to wild type); higher = more active; in vitro selection; Mg2+ level not given
Procedure, shortened: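 An in vitro group I ribozyme library with randomized positions was T7-transcribed and gel-purified. In triplicate, 10 pmol RNA in EPPS pH 7.5 was reacted with 50 pmoles of a 30-nt RNA substrate for 1 h at 37 °C across several added MgCl2 levels (1–48 mM), then stopped with EDTA. Products were reverse transcribed from a substrate-complementary primer, PCR-amplified and sequenced (HiSeq 4000). Fitness is a variant's read proportion after selection over that before, normalised to wild type.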

Variant | reverse-splicing fitness
A111U A120U A145U C169A | 0.00401
A111U A120U A145U C169U | 0.0617
A111U A120U A145U C169G | 0.0519
A111U A120U C150A C169U U176C | 0.0045
A111U A120U C150A C169U U176G | 0.00212
A111U A120U C150A C169U U176A | 0.00638
A111U A120U A145G C150A U176C | 0.0415
A111U A120U A145G C150A U176A | 0.0364
A111U A120U A145G C150A U176G | 0.00868
A111U A120U A145G C150G U176C | 0.0225
A111U A120U A145G C150G U176G | 0.00387
A111U A120U A145G C150G U176A | 0.01
A111U A120U A145U C169U U176G | 0.00258
A111U A120U A145U C169U U176C | 0.0174
A111U A120U A145U C169U U176A | 0.0087
A111U A120U A145U C150U C169A U176A | 0.00308
A111U A120U A145U C150U C169A U176C | 0.00309
A111U A120U A145U C150U C169A U176G | 0.00264
A111U A120U C150G | 0.045
A111U A120U C150U | 0.374
A111U A120U C150A | 0.0595
A111U A120U A145U C150A C169U U176A | 0.00294
A111U A120U A145U C150A C169U U176C | 0.00324
A111U A120U A145U C150A C169U U176G | 0.00245

Variant | reverse-splicing fitness
A111U A120U C169G | 0.0555
A111U A120U C169A | 0.00533
A111U A120U A145U C169G U176G | 0.00201
A111U A120U A145U C169G U176C | 0.00666
A111U A120U A145U C169G U176A | 0.00482
A111U A120U A145G C169U U176C | 0.0176
A111U A120U A145G C169U U176A | 0.0114
A111U A120U A145G C169U U176G | 0.00258
A111U A120U C150G C169G U176G | 0.00237
A111U A120U C150G C169G U176A | 0.00371
A111U A120U C150G C169G U176C | 0.00285
A111U A120U A145G C150U U176G | 0.0253
A111U A120U A145G C150U U176C | 0.206
A111U A120U A145G C150U U176A | 0.18
A111U A120U A145U C169A U176C | 0.00283
A111U A120U A145U C169A U176A | 0.00253
A111U A120U A145U C169A U176G | 0.00231
A111U A120U C150U C169U U176C | 0.0116
A111U A120U C150U C169U U176G | 0.00287
A111U A120U C150U C169U U176A | 0.0088
A111U A120U A145G C169A | 0.00419
A111U A120U A145G C169G | 0.0528
A111U A120U A145G C169U | 0.076
A111U A120U A145G C150U | 0.486

Variant | reverse-splicing fitness
A111U A120U A145G C150G | 0.0631
A111U A120U A145U U176C | 0.281
A111U A120U A145U U176G | 0.0645
A111U A120U A145U U176A | 0.241
A111U A120U A145U | 0.607
A111U A120U C150G C169A U176A | 0.00451
A111U A120U C150G C169A U176G | 0.00232
A111U A120U C150G C169A U176C | 0.0037
A111U A120U A145U C150G C169U | 0.00751
A111U A120U A145U C150G C169G | 0.00597
A111U A120U A145U C150G C169A | 0.00326
A111U A120U A145U C150G U176A | 0.0111
A111U A120U A145U C150G U176G | 0.0043
A111U A120U A145U C150G U176C | 0.0208
A111U A120U A145G C150G C169U U176C | 0.00615
A111U A120U A145G C150G C169U U176G | 0.00383
A111U A120U A145G C150G C169U U176A | 0.00644
A111U A120U A145U C150G C169A U176G | 0.00255
A111U A120U A145U C150G C169A U176A | 0.00319
A111U A120U A145U C150G C169A U176C | 0.00274
A111U A120U A145U C150A | 0.0527
A111U A120U A145U C150U | 0.405
A111U A120U A145U C150G | 0.0604
A111U A120U A145G C150U C169G U176A | 0.00769

Variant | reverse-splicing fitness
A111U A120U A145G C150U C169G U176C | 0.00802
A111U A120U A145G C150U C169G U176G | 0.0024
A111U A120U C150G C169U U176A | 0.00272
A111U A120U C150G C169U U176C | 0.00454
A111U A120U C150G C169U U176G | 0.0029
A111U A120U A145G C150U C169A U176C | 0.00389
A111U A120U A145G C150U C169A U176G | 0.00237
A111U A120U A145G C150U C169A U176A | 0.00497
A111U A120U A145G U176C | 0.266
A111U A120U A145G U176G | 0.0546
A111U A120U A145G U176A | 0.27
A111U A120U A145U C150U C169U U176G | 0.00253
A111U A120U A145U C150U C169U U176A | 0.00718
A111U A120U A145U C150U C169U U176C | 0.00988
A111U A120U C150A C169A U176A | 0.00475
A111U A120U C150A C169A U176G | 0.00251
A111U A120U C150A C169A U176C | 0.00348
A111U A120U C150A U176G | 0.0103
A111U A120U C150A U176C | 0.0318
A111U A120U C150A U176A | 0.0294
A111U A120U A145U C150A U176G | 0.00946
A111U A120U A145U C150A U176C | 0.0269
A111U A120U A145U C150A U176A | 0.0229
A111U A120U C150A C169G U176G | 0.00254

Variant | reverse-splicing fitness
A111U A120U C150A C169G U176C | 0.00445
A111U A120U C150A C169G U176A | 0.00698
A111U A120U C150U C169A U176C | 0.00279
A111U A120U C150U C169A U176A | 0.00464
A111U A120U C150U C169A U176G | 0.00214
A111U A120U A145G C169A U176A | 0.00212
A111U A120U A145G C169A U176C | 0.00376
A111U A120U A145G C169A U176G | 0.00247
A111U A120U A145U C150G C169U U176A | 0.00295
A111U A120U A145U C150G C169U U176G | 0.00222
A111U A120U A145U C150G C169U U176C | 0.0031
A111U A120U A145G C150U C169U U176G | 0.00291
A111U A120U A145G C150U C169U U176A | 0.0115
A111U A120U A145G C150U C169U U176C | 0.0144
A111U A120U A145G C150U C169A | 0.00694
A111U A120U A145G C150U C169G | 0.0377
A111U A120U A145G C150U C169U | 0.0617
A111U A120U C150G U176A | 0.00718
A111U A120U C150G U176C | 0.0189
A111U A120U C150G U176G | 0.00286
A111U A120U C169A U176G | 0.00214
A111U A120U C169A U176C | 0.00373
A111U A120U C169A U176A | 0.00255
A111U A120U A145U C150U C169G U176G | 0.00227

Variant | reverse-splicing fitness
A111U A120U A145U C150U C169G U176C | 0.00596
A111U A120U A145U C150U C169G U176A | 0.00542
A111U A120U A145U C150U C169U | 0.0433
A111U A120U A145U C150U C169G | 0.0304
A111U A120U A145U C150U C169A | 0.00404
A111U A120U A145U C150G C169G U176C | 0.00228
A111U A120U A145U C150G C169G U176G | 0.00207
A111U A120U A145U C150G C169G U176A | 0.00294
A111U A120U A145G C169G U176A | 0.00549
A111U A120U A145G C169G U176G | 0.00167
A111U A120U A145G C169G U176C | 0.00918
A111U A120U A145U C150A C169G U176C | 0.00325
A111U A120U A145U C150A C169G U176A | 0.00269
A111U A120U A145U C150A C169G U176G | 0.00225
A111U A120U A145G C150G C169A U176A | 0.0087
A111U A120U A145G C150G C169A U176G | 0.00452
A111U A120U A145G C150G C169A U176C | 0.00774
A111U A120U C150U U176C | 0.171
A111U A120U C150U U176A | 0.125
A111U A120U C150U U176G | 0.027
A111U A120U C150G C169G | 0.00802
A111U A120U C150G C169A | 0.00749
A111U A120U C150G C169U | 0.00855
A111U A120U C150A C169G | 0.00631

Variant | reverse-splicing fitness
A111U A120U C150A C169U | 0.00846
A111U A120U C150A C169A | 0.00436
A111U A120U A145U C150A C169A | 0.00249
A111U A120U A145U C150A C169U | 0.00692
A111U A120U A145U C150A C169G | 0.0047
A111U A120U A145G C150G C169A | 0.00796
A111U A120U A145G C150G C169U | 0.0125
A111U A120U A145G C150G C169G | 0.01
A111U A120U A145U C150A C169A U176G | 0.00154
A111U A120U A145U C150A C169A U176C | 0.00214
A111U A120U A145U C150A C169A U176A | 0.00284
A111U A120U A145U C150U U176G | 0.0292
A111U A120U A145U C150U U176C | 0.174
A111U A120U A145U C150U U176A | 0.16
A111U A120U C150U C169G U176G | 0.00213
A111U A120U C150U C169G U176C | 0.00679
A111U A120U C150U C169G U176A | 0.00847
A111U A120U C150U C169A | 0.00484
A111U A120U C150U C169U | 0.0369
A111U A120U C150U C169G | 0.0274
A111U A120U A145G C150G C169G U176C | 0.00495
A111U A120U A145G C150G C169G U176A | 0.00683
A111U A120U A145G C150G C169G U176G | 0.00343
